Measured values from US20130330362A1 (HEFEI TAIRUI BIOTECHNOLOGY, published 2013).

Target: T1, Epidermal Growth Factor Receptor (EGFR) protein (UniProt P00533 25-1210, limits assumed)
T1 construct: Bought protein; also called EGFR proteins; antigen EGFR
Assay: SPR, Biacore3000, CM5 chip, HBS-EP pH 7.4, mean of three runs
Experimental: The binding affinity between antibody and EGFR was assayed with Biacore3000 equipment. The EGFR proteins diluted with 10 mmol/L NaAc and having different pH (4.0, 4.5, 5.0 and 5.5) were formulated, and were pre-concentrated on CM5 chip to select the NaAc diluted protein with optimum pH. […] The binding affinities were computed with the software attached by Biacore3000.

Kd: 2.75 nM
B1: anti-EGFR humanized antibody L4-H3 (antibody, human IgG1, kappa, V domains shown)
VH: VKLLEQSGAEVKKPGASVKVSCKASGFSLTNYGVHWVRQAPGQRLEWMGVIWSGGNTDYNTPFTSRVTITRDTSATTAYMGLSSLRPEDTAVYYCARALTYYDYEFAYWGQGTLVTVSS
VL: ELVMTQSPSSLSASVGDRVNIACRASQSIGTNIHWYQQKPGKAPRLLIKYASESISGVPSRFSGSGSGTDFTLTISSLQPEDFAIYYCQQNNNWPTTFGGGTKVEIKR
notes: also called antibody of the present invention; the antibody
